Experimental data taken from PMC11220700, “Activation and Purification of ß‐Glucocerebrosidase by Exploiting its Transporter LIMP‐2 – Implications for Novel Treatment Strategies in Gaucher's and Parkinson's Disease” (Advanced Science, 2024).
*: point of attachment. Biotin = O=C1N[C@H]2[C@H](CS[C@H]2CCCCC(=O)*)N1

Tests used:
untagged human GCase wt = target: T1, untagged human GCase wt (human, UniProt P04062-1 40-536); assay: pull-down; Ni-NTA beads in conditioned medium of HEK 293F cells expressing His-tagged sLIMP-2 with untagged GCase (96 h); overnight at 4 °C; wash with 20 mM imidazole, elution with 400 mM imidazole, pH 8.0; western blot; settings: partners not purified
T1 construct: human beta-glucocerebrosidase (GCase) wild type, untagged, secreted into the medium; also called wt GCase; beta-glucocerebrosidase; source: HEK 293F, transfected (with sLIMP-2 or alone), in conditioned medium; co-purified with sLIMP-2 (Ni-NTA, SEC)
T1 sequence (looked up): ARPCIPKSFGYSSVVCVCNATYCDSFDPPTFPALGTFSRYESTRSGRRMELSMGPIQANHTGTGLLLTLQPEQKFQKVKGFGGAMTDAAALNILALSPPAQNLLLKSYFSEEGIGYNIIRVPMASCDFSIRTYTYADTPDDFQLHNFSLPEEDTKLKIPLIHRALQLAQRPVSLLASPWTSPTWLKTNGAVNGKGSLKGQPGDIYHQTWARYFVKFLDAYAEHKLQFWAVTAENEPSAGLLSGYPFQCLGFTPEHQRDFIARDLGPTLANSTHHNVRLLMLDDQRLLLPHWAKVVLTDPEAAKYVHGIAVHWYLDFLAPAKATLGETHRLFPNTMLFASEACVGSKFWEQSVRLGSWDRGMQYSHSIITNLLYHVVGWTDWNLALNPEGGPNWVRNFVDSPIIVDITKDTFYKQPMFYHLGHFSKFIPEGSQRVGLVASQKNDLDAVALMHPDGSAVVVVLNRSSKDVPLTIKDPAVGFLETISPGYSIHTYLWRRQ

untagged GCase E326K = target: T2, untagged GCase E326K (human, UniProt P04062-1 40-536, E326K); assay: as above; settings: partners not purified
T2 construct: human beta-glucocerebrosidase (GCase), disease-associated variant E326K, untagged; printed also as p.Glu365Lys (NM_000157.4); numbers count on: the mature protein; also called E326K GCase; p.E326K; source: HEK 293F, transfected (with sLIMP-2 or alone), in conditioned medium; co-purified with sLIMP-2 (Ni-NTA, SEC)
T2 sequence (looked up): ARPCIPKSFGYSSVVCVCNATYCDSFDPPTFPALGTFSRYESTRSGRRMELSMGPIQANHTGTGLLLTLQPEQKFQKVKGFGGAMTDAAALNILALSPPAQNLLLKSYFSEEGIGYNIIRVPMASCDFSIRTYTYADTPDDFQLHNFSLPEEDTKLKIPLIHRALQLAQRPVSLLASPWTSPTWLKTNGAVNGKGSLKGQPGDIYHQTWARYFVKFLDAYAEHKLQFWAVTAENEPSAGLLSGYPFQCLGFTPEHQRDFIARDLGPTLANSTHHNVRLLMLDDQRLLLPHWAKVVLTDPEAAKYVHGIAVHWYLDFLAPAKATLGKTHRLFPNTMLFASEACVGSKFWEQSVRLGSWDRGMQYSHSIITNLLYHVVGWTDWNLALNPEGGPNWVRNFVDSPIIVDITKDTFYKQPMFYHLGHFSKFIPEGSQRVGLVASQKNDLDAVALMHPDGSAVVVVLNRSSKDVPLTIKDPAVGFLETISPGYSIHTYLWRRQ

untagged GCase N370S = target: T3, untagged GCase N370S (human, UniProt P04062-1 40-536, N370S); assay: as above; settings: partners not purified
T3 construct: human beta-glucocerebrosidase (GCase), disease-associated variant N370S, untagged; numbers count on: the mature protein; also called N370S GCase; p.N370S; source: HEK 293F, transfected with sLIMP-2, in conditioned medium; co-purified with sLIMP-2 (Ni-NTA, SEC)
T3 sequence (looked up): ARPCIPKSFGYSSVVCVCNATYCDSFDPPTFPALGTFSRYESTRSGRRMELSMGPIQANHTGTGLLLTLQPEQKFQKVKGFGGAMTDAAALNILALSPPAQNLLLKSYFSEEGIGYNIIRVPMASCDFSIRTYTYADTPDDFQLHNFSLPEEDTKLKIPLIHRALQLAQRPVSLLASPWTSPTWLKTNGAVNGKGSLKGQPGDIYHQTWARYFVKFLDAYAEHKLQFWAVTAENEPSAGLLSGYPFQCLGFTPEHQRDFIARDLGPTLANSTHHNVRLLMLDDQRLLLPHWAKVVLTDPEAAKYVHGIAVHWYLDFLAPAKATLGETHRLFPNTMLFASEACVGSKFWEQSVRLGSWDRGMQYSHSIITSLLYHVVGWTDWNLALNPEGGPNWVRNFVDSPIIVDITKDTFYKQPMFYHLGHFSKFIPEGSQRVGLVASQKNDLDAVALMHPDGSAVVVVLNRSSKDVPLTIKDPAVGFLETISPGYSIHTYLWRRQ

[1] = target: T4, His‐tagged GCase wt (10xHis, C‐terminal, TEV‐cleavable) (human, UniProt P04062-1 40-536, red fluorescent dye NT-637 on amines (RED-NHS labelling kit), for MST); assay: MST; GCase-His labelled, L2H5-wt titrated; lysosomal pH (pH 5.0); saturation not reached; settings: both partners purified
T4 construct: human beta-glucocerebrosidase (GCase) wild type, secreted from cells transfected with pCMV-3-GBA-His; also called GCase-His; source: HEK 293F, transfected, purified from conditioned medium (Ni-NTA); not shown: 10xHis (TEV-cleavable), C-terminal, kept
T4 sequence (looked up): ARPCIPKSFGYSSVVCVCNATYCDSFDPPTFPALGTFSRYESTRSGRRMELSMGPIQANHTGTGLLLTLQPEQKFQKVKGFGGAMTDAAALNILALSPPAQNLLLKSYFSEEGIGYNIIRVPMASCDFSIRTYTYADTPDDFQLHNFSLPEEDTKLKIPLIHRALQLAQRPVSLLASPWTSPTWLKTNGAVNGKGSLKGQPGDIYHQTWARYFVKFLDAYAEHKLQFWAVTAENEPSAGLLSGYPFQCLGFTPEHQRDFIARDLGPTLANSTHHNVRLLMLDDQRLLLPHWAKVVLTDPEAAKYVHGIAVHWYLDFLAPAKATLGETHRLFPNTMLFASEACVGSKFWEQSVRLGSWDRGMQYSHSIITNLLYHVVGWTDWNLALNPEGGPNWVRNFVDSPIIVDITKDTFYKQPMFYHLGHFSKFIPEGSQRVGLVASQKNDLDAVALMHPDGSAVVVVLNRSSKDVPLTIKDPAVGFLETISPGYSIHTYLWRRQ

[2] = target: T4, His‐tagged GCase wt (10xHis, …); assay: MST; GCase-His labelled with NT-637, fixed at 25 nM; L2H5-wt titrated in a twofold series of 16 from 125 µM; 50 mM sodium citrate + 0.05% Tween-20, pH 7.4 (cytosolic pH); ambient temperature; the two highest concentrations left out of the Kd fit; settings: both partners purified

B1: soluble LIMP‐2 (sLIMP‐2), secreted LIMP‐2 ectodomain (domain or fragment, human, UniProt Q14108 36-431, looked up)
chain: SIEKKIVLRNGTEAFDSWEKPPLPVYTQFYFFNVTNPEEILRGETPRVEEVGPYTYRELRNKANIQFGDNGTTISAVSNKAYVFERDQSVGDPKIDLIRTLNIPVLTVIEWSQVHFLREIIEAMLKAYQQKLFVTHTVDELLWGYKDEILSLIHVFRPDISPYFGLFYEKNGTNDGDYVFLTGEDSYLNFTKIVEWNGKTSLDWWITDKCNMINGTDGDSFHPLITKDEVLYVFPSDFCRSVYITFSDYESVQGLPAFRYKVPAEILANTSDNAGFCIPEGNCLGSGVLNVSICKNGAPIIMSFPHFYQADERFVSAIEGMHPNQEDHETFVDINPLTGIILKAAKRFQINIYVKKLDDFVETGDIRTMVFPVMYLNESVHIDKETASRLKSMINT
notes: lysosomal integral membrane protein 2 (LIMP-2), human, luminal domain, amino acids 36-431; also called LIMP-2 shuttle; sLIMP-2-shuttle; source: HEK 293F, transfected, secreted into conditioned medium; purified (Ni-NTA, SEC); not shown: 10xHis (TEV-cleavable), C-terminal, kept
binding result (untagged human GCase wt): binds
binding result (untagged GCase E326K): binds
binding result (untagged GCase N370S): binds

B2: L2H5‐wt peptide (LIMP‐2‐derived helix 5 peptide) (peptide)
peptide: Biotin-KFERQGSGSQVHFLREIIEAMLKAYQSGSGYGRKKRRQRRR-NH2
notes: also called LIMP-2-derived peptide; LIMP-2-mimicking peptide; source: synthetic peptide (BioCat, >95% purity)
Kd [1]: ~98 µM
Kd [2]: 0.153 ± 0.037 µM
